According to the supplement of paper PMC9233669:
Fewer inactive variants are shown than the library holds.

Columns and labels:
biotinyl-Phe-oxazolone = assay: self-aminoacylation, catalytic enhancement (BFO) (fold over background); higher = more active; k-Seq, kA / k0A0; sequences stand for … in GGGAAUGGAUCCACAUCUACGAAUUC…UUCACUGCAGACUUGACGAAGCUG
Outline: (§1)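 Catalytic enhancement equals the median kA over the uncatalyzed rate, the latter read from the low-activity peak of a bimodal Gaussian fit. Values of kA came from fitting each sequence's fraction reacted to a pseudo-first-order model, with 1000 bootstraps. Reacted RNA was captured with streptavidin and quantified by triplicate qPCR and Illumina sequencing after 90 minutes at room temperature with 2–1250 μM biotinyl-aminoacyl-oxazolone and 0.43 μM mutagenized RNA pools bearing a 21-nt variable region.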

biotinyl-Val-oxazolone = assay: self-aminoacylation, catalytic enhancement (BVO) (fold over background); higher = more active; k-Seq, kA / k0A0; sequences stand for … in GGGAAUGGAUCCACAUCUACGAAUUC…UUCACUGCAGACUUGACGAAGCUG
Outline: as §1

biotinyl-Trp-oxazolone = assay: self-aminoacylation, catalytic enhancement (BWO) (fold over background); higher = more active; k-Seq, kA / k0A0; sequences stand for … in GGGAAUGGAUCCACAUCUACGAAUUC…UUCACUGCAGACUUGACGAAGCUG
Outline: as §1

biotinyl-Leu-oxazolone = assay: self-aminoacylation, catalytic enhancement (BLO) (fold over background); higher = more active; k-Seq, kA / k0A0; sequences stand for … in GGGAAUGGAUCCACAUCUACGAAUUC…UUCACUGCAGACUUGACGAAGCUG
Outline: as §1

biotinyl-Ile-oxazolone = assay: self-aminoacylation, catalytic enhancement (BIO) (fold over background); higher = more active; k-Seq, kA / k0A0; sequences stand for … in GGGAAUGGAUCCACAUCUACGAAUUC…UUCACUGCAGACUUGACGAAGCUG
Outline: as §1

biotinyl-Met-oxazolone = assay: self-aminoacylation, catalytic enhancement (BMO) (fold over background); higher = more active; k-Seq, kA / k0A0; sequences stand for … in GGGAAUGGAUCCACAUCUACGAAUUC…UUCACUGCAGACUUGACGAAGCUG
Outline: as §1

| Sequence | self-aminoacylation (biotinyl-Phe-oxazolone) | self-aminoacylation (biotinyl-Val-oxazolone) | self-aminoacylation (biotinyl-Trp-oxazolone) | self-aminoacylation (biotinyl-Leu-oxazolone) | self-aminoacylation (biotinyl-Ile-oxazolone) | self-aminoacylation (biotinyl-Met-oxazolone) |
| --- | --- | --- | --- | --- | --- | --- |
| CGACAUUUCAAGCAAUCGGUC [Fam1B.1 aminoacylation ribozyme variant] | 1.28 | 1.17 | 1.33 | 1.06 | 1.18 | 1.09 |
| AUCCACCUAGGUCAUCGGGUA [Fam2.2 aminoacylation ribozyme variant] | 275 | 18.1 | 26.5 | 53.2 | 20.2 | 39.4 |
| AUUACCCUGGUCAUCUAGUCA [Fam2.1 aminoacylation ribozyme variant] | 0.712 | 0.827 | 0.455 | 0.616 | 0.753 | 0.578 |
| AUUCUCCUUGGUCAUCGGGUG [Fam2.2 aminoacylation ribozyme variant] | 75 | 7.53 | 9.53 | 13.8 | 6.85 | 9.71 |
| ACUACCCUGGUCUUCGAGUGA [Fam2.1 aminoacylation ribozyme variant] | 11.5 | 2.72 | 5.15 | 4.54 | 2.45 | 4.26 |
| AUUCGCCUAGGUAAUCGGGUG [Fam2.2 aminoacylation ribozyme variant] | 28 | 2.43 | 2.77 | 3.88 | 2.02 | 3.62 |
| AUUACCCUCGUAAUCGAGUGA [Fam2.1 aminoacylation ribozyme variant] | 120 | 7.73 | 21.7 | 17.2 | 6.62 | 16 |
| AUUACCCUAGUCAUAGAGUGA [Fam2.1 aminoacylation ribozyme variant] | 32.7 | 3.95 | 9.37 | 7.72 | 4.22 | 7.98 |
| AUUACCCUGGUCAUGGAAUGA [Fam2.1 aminoacylation ribozyme variant] | 1.95 | 1.21 | 2.08 | 1.17 | 1.19 | 1.53 |
| AUUCACCUAGGUCAUGAGGUG [Fam2.2 aminoacylation ribozyme variant] | 3.32 | 1.81 | 1.75 | 3.15 | 1.94 | 2.41 |
| AUUACCCUGAUCAUCGCGUGA [Fam2.1 aminoacylation ribozyme variant] | 99.5 | 7.01 | 14.9 | 14.1 | 5.83 | 14.7 |
| AUCCACCUAGGUCCUCGGGUG [Fam2.2 aminoacylation ribozyme variant] | 31.1 | 4.71 | 6.83 | 6.47 | 3.76 | 6.2 |
| CCACACUUCGAGCAAUCCGUC [Fam1B.1 aminoacylation ribozyme variant] | 0.498 | 1.49 | 1.4 | 1.08 | 1.28 | 1.03 |
| AUUCACCUAGGUAAUCGGCUG [Fam2.2 aminoacylation ribozyme variant] | 0.486 | 1.02 | 1.2 | 1.31 | 0.944 | 1.23 |
| AAGUAUGAUAAUAGUCGCAAG [Fam3.1 aminoacylation ribozyme variant] | 1.35 | 1.28 | 1.2 | 1.1 | 1.22 | 1.13 |
| CUACUUCAGACCAUCGGUCUG [Fam1A.1 aminoacylation ribozyme variant] | 1.06 | 1.07 | 0.856 | 1.14 | 1.1 | 1.25 |
| AUUACGCUGGUCAUCGAGUGA [Fam2.1 aminoacylation ribozyme variant] | 16.1 | 3.23 | 5.76 | 4.69 | 3.16 | 4.57 |
| CCACACUUAAGGCAAUCGGUC [Fam1B.1 aminoacylation ribozyme variant] | 0.764 | 0.981 | 1.25 | 1.03 | 1.15 | 0.983 |

| Sequence | self-aminoacylation (biotinyl-Phe-oxazolone) | self-aminoacylation (biotinyl-Val-oxazolone) | self-aminoacylation (biotinyl-Trp-oxazolone) | self-aminoacylation (biotinyl-Leu-oxazolone) | self-aminoacylation (biotinyl-Ile-oxazolone) | self-aminoacylation (biotinyl-Met-oxazolone) |
| --- | --- | --- | --- | --- | --- | --- |
| ACUACCCGGGUCAUCGAGUGA [Fam2.1 aminoacylation ribozyme variant] | 43.7 | 4.17 | 8.27 | 8.28 | 4.64 | 7.84 |
| AUUACCAUGGUCACCGAGUGA [Fam2.1 aminoacylation ribozyme variant] | 49.9 | 3.41 | 8.6 | 9.1 | 3.34 | 8.17 |
| AAUCACCUAGGCCAUCGGGUG [Fam2.2 aminoacylation ribozyme variant] | 25.5 | 3.86 | 5.04 | 3.01 | 2.88 | 3 |
| ACUAGCCUGGUCAUCGAGUGA [Fam2.1 aminoacylation ribozyme variant] | 30.2 | 3.68 | 5.21 | 4.72 | 3.66 | 4.28 |
| AUUACCAUGGGCAUCGAGUGA [Fam2.1 aminoacylation ribozyme variant] | 30.7 | 3.13 | 7.88 | 6.48 | 3 | 6.01 |
| CUACUUCAAACAAUGGGCCUG [Fam1A.1 aminoacylation ribozyme variant] | 1.67 | 1.16 | 0.896 | 1.19 | 1.4 | 1.25 |
| AUUACACGGGUCAUCGAGUGA [Fam2.1 aminoacylation ribozyme variant] | 21.7 | 3.1 | 5.36 | 4.33 | 2.64 | 4.62 |
| AUUCACCUAGGUUAUCGGAUG [Fam2.2 aminoacylation ribozyme variant] | 0.355 | 0.986 | 0.723 | 0.673 | 0.661 | 0.712 |
| AUGCCCCUGGUCAUCGAGUGA [Fam2.1 aminoacylation ribozyme variant] | 38.4 | 5.59 | 10 | 10.2 | 5.14 | 9.73 |
| AUUCACCUACGCCAUCGGGUG [Fam2.2 aminoacylation ribozyme variant] | 21.9 | 2.11 | 3.52 | 4.34 | 2.1 | 3.6 |
| CCACACUUUAAGCAAUCGGUA [Fam1B.1 aminoacylation ribozyme variant] | 0.889 | 0.95 | 0.553 | 0.63 | 0.788 | 0.722 |
| CCACACUUCUAGCAAUCGGAC [Fam1B.1 aminoacylation ribozyme variant] | 0.585 | 0.612 | 0.61 | 0.979 | 0.941 | 0.665 |
| AGGUUUACUAAUAGUCGCAAG [Fam3.1 aminoacylation ribozyme variant] | 4.12 | 1.47 | 1.81 | 1.49 | 1.58 | 1.84 |
| AUUACCCUGGUCAUCGAUAGA [Fam2.1 aminoacylation ribozyme variant] | 0.5 | 0.77 | 1.23 | 0.537 | 0.721 | 0.638 |
| AUACUUCAUACAAUCGGUCUG [Fam1A.1 aminoacylation ribozyme variant] | 1.1 | 0.939 | 0.952 | 0.874 | 1.02 | 0.981 |
| CCACACUUCACGGAAUCGGUC [Fam1B.1 aminoacylation ribozyme variant] | 1.01 | 1.39 | 0.915 | 1.65 | 1.16 | 1.14 |
| CUACUUCAUACAGUCGGUCUG [Fam1A.1 aminoacylation ribozyme variant] | 0.496 | 0.67 | 0.282 | 0.556 | 0.574 | 0.52 |
